In one experiment the target is HLA-B*08:01. As to the kind of experiment: IEDB peptide-MHC binding, purified MHC/competitive/radioactivity; filed as Kd, often an IC50 or EC50 that approximates it; ≥ and ≤ were set here for values at or beyond the usual limits of such assays.
Another experiment addresses HLA-B*07:02. The experiment is described as above.
The next experiment deals with HLA-A*26:01. The description is as above.
The target of the next experiment is HLA-A*23:01. The experiment is described as above.
The target in another experiment is HLA-A*24:02. The description is as above.
A further experiment concerns the target HLA-A*29:02. The experiment is described as above.
The target of another experiment is HLA-A*01:01. The description is as above.
The target of another experiment is HLA-A*30:02. Described as above.
A further experiment deals with HLA-B*46:01. The experiment in a line: IEDB peptide-MHC binding, purified MHC/direct/fluorescence; filed as Kd, often an IC50 or EC50 that approximates it; ≥ and ≤ were set here for values at or beyond the usual limits of such assays. Particulars: source organism: West Nile virus.
For another experiment, the target named is HLA-A*02:06. The experiment in a line: IEDB peptide-MHC binding, purified MHC/competitive/radioactivity; filed as Kd, often an IC50 or EC50 that approximates it; ≥ and ≤ were set here for values at or beyond the usual limits of such assays. The conditions noted are these: source organism: Dengue virus 1 Brazil/97-11/1997.
Where [1] appears, read: source organism: Dengue virus 1 Brazil/97-11/1997.
The mark [2] stands for this setting: source organism: Dengue virus 2 Jamaica/1409/1983.
[3] abbreviates: source organism: Dengue virus 4 Philippines/H241/1956.
[4] abbreviates: source organism: Mammarenavirus tacaribeense.
The mark [5] stands for this setting: source organism: Mammarenavirus lassaense.
[6] abbreviates: source organism: Dengue virus 3 Martinique/1243/1999.
Where [7] appears, read: source organism: SARS coronavirus Tor2.
The mark [8] stands for this setting: source organism: Vaccinia virus WR.
[9] abbreviates: source organism: Dengue virus 3 Singapore/8120/1995.
The mark [10] stands for this setting: source organism: Mammarenavirus brazilense.
[11] abbreviates: source organism: Lymphocytic choriomeningitis virus (strain Armstrong).
Setting [12] is: source organism: Mammarenavirus whitewaterense.
Setting [13] is: source organism: Mammarenavirus guanaritoense.
Setting [14] is: source organism: Mammarenavirus juninense.

The source of these data is the Immune Epitope Database (IEDB).

Some results are limits rather than exact numbers.

A word on the Kd: it is a measure of binding affinity in units of concentration. With KWKNRLNAL, in the experiment with HLA-B*08:01 (source organism: Dengue virus 2 Peru/IQT2913/1996), the Kd was determined as 157 nM.
Regarding GPMPVTVASA, the Kd in the experiment with HLA-B*07:02 (setting [1]) amounted to 53.3 nM.
For the sequence STVQQLTKRF, the Kd with HLA-A*26:01 (setting [2]) was 6790 nM.
Regarding KREDLWCGSL, the Kd in the experiment with HLA-B*08:01 (setting [3]) was determined as 4730 nM.
For the sequence SFYCDPKRFF, the Kd with HLA-A*23:01 (setting [4]) was found to be 491 nM; with HLA-A*24:02 (setting [4]), 1980 nM; with HLA-A*29:02 (setting [4]) it was 156 nM.
As for VVRPPFNML, the Kd in the experiment with HLA-B*07:02 (setting [3]) was 20.5 nM.
Consider AGFSAGLTY, for which the Kd is at least 23900 nM with HLA-A*01:01 (setting [5]); at least 43800 nM in the experiment with HLA-A*23:01 (setting [5]); at least 77500 nM in the experiment with HLA-A*24:02 (setting [5]); at least 77900 nM with HLA-A*26:01 (setting [5]); 63.6 nM with HLA-A*29:02 (setting [5]); 528 nM with HLA-A*30:02 (setting [5]).
For APHVGLGLET, the Kd with HLA-B*07:02 (setting [1]) stood at 1160 nM.
For the sequence LTMKNKAWM, in the experiment with HLA-A*26:01 (setting [6]), the Kd is at least 45300 nM.
Sequence LLLLVAPAY came in with a Kd with HLA-B*46:01 of at least 20000 nM.
In the case of YTQMCDHRL, the Kd with HLA-A*01:01 (setting [1]) was found to be 5710 nM.
Consider KMETLQRKY, for which the Kd in the experiment with HLA-A*30:02 (setting [2]) is at least 76900 nM.
For the sequence QFKDNVILL, the Kd with HLA-A*01:01 (setting [7]) is at least 51800 nM; with HLA-A*23:01 (setting [7]), 1150 nM; with HLA-A*24:02 (setting [7]), 1130 nM; with HLA-A*26:01 (setting [7]) it was at least 27500 nM; in the experiment with HLA-A*29:02 (setting [7]), at least 21700 nM; with HLA-A*30:02 (setting [7]), at least 40000 nM.
Turning to SPTSYLDVDL, in the experiment with HLA-B*07:02 (setting [6]), the Kd is 1640 nM.
With PFWITAIYVF, the Kd came to 410 nM with HLA-A*01:01 (setting [7]); 0.189 nM in the experiment with HLA-A*23:01 (setting [7]); 1.92 nM in the experiment with HLA-A*24:02 (setting [7]); 724 nM in the experiment with HLA-A*26:01 (setting [7]); 657 nM with HLA-A*29:02 (setting [7]); 16000 nM with HLA-A*30:02 (setting [7]).
As to HLAIMAVFKM, in the experiment with HLA-A*26:01 (setting [3]), the Kd is 9580 nM.
Turning to IMAVLFVVTL, the Kd in the experiment with HLA-B*08:01 (setting [3]) is 5420 nM.
As for AYRIKQRGIL, the Kd in the experiment with HLA-B*08:01 (setting [2]) was found to be 659 nM.
Consider IMRMRFKKG, for which, in the experiment with HLA-B*08:01 (setting [8]), the Kd came to 62.4 nM.
Turning to VTTWEDVPY, the Kd with HLA-A*01:01 (setting [9]) worked out at 520 nM; with HLA-A*30:02 (setting [9]), 248 nM.
On to LTHSINALI, for which the Kd with HLA-A*23:01 (setting [10]) came to 1010 nM; in the experiment with HLA-A*24:02 (setting [10]), 6720 nM; in the experiment with HLA-A*29:02 (setting [10]), 12800 nM.
Take LIFRGPNVV: the Kd was 10800 nM with HLA-A*01:01 (setting [11]); 15400 nM with HLA-A*23:01 (setting [11]); at least 77500 nM in the experiment with HLA-A*24:02 (setting [11]); at least 77900 nM with HLA-A*26:01 (setting [11]); at least 54700 nM with HLA-A*29:02 (setting [11]); 9970 nM with HLA-A*30:02 (setting [11]).
As for VWKRFEHLCV, the Kd in the experiment with HLA-A*01:01 (setting [12]) is at least 70400 nM; in the experiment with HLA-A*23:01 (setting [12]), 7990 nM; in the experiment with HLA-A*24:02 (setting [12]), at least 47600 nM; with HLA-A*26:01 (setting [12]), at least 69700 nM; with HLA-A*29:02 (setting [12]), at least 71400 nM; in the experiment with HLA-A*30:02 (setting [12]), 10500 nM.
For the sequence MLLNRFTMA, the Kd was found to be 5.12 nM with HLA-A*02:06 and 10.2 nM with HLA-B*08:01 (setting [1]).
As for IDETCEHEY, the Kd was 11000 nM in the experiment with HLA-A*01:01 (setting [7]); at least 77800 nM in the experiment with HLA-A*23:01 (setting [7]); at least 77600 nM with HLA-A*24:02 (setting [7]); at least 32000 nM with HLA-A*26:01 (setting [7]); 2850 nM with HLA-A*29:02 (setting [7]); 162 nM with HLA-A*30:02 (setting [7]).
For the sequence SAIFFTTSLF, the results for the equilibrium dissociation constant (Kd) with HLA-A*23:01 (setting [13]), with HLA-A*24:02 (setting [13]) and in the experiment with HLA-A*29:02 (setting [13]) were 80.8 nM, 452 nM and 87.9 nM, respectively.
In the case of GVIITWIGM, the Kd with HLA-A*26:01 (setting [2]) amounted to 15700 nM.
On to RLKMDKLTL, for which the Kd in the experiment with HLA-B*08:01 (setting [1]) came out at 268 nM.
As to LGRNKKPRL, the Kd with HLA-B*08:01 (setting [6]) turned out to be 265 nM.
Still for that read-out and setting: to TKKVRTNAA belongs 43.6 nM.
Turning to LQLKGMSYSM, the Kd with HLA-B*08:01 (setting [2]) was found to be 70 nM.
Take FFINFFNLL: the dissociation constant (Kd) in the experiment with HLA-B*08:01 (setting [8]) amounted to 149 nM.
As for ETAWDFGSVG, the Kd with HLA-A*26:01 (setting [3]) was found to be 138 nM.
Take EKEENMVKSL: in the experiment with HLA-B*08:01 (setting [6]), the dissociation constant Kd was 10600 nM.
Take PTEQVDTLL: in the experiment with HLA-A*01:01 (setting [3]), the Kd stood at 14800 nM.
As for RPTPKGAVMD, in the experiment with HLA-B*07:02 (setting [3]), the Kd amounted to 100 nM.
On to PYIGSRSQI, for which the Kd in the experiment with HLA-A*23:01 (setting [14]) is 312 nM; in the experiment with HLA-A*24:02 (setting [14]) it was 1080 nM; in the experiment with HLA-A*29:02 (setting [14]), at least 21000 nM.
As to RPLKEKEENL, the Kd with HLA-B*08:01 (setting [2]) was determined as 1820 nM.
LGLNSRSTSL: the Kd in the experiment with HLA-B*08:01 (setting [1]) was determined as 39.9 nM.
In the case of YPFFRKLVL, the Kd with HLA-B*08:01 (setting [8]) turned out to be 5.86 nM.
For LEKRHVLGRL, in the experiment with HLA-B*08:01 (setting [2]), the Kd turned out to be 7040 nM.
Turning to RPRWLDARV, in the experiment with HLA-B*07:02 (source organism: Dengue virus 4 Dominica/814669/1981), the Kd was 1.7 nM.
Turning to MTDKTPVHS, the Kd with HLA-A*01:01 (setting [3]) worked out at 6570 nM.
